Data as given in patent publication US20240167008, “NOVEL CRISPR ENZYMES, METHODS, SYSTEMS AND USES THEREOF” (Beam Therapeutics Inc., published 2024).

T1: ScoCas9 (human codon-optimized) (Streptococcus constellatus)
T1 chain: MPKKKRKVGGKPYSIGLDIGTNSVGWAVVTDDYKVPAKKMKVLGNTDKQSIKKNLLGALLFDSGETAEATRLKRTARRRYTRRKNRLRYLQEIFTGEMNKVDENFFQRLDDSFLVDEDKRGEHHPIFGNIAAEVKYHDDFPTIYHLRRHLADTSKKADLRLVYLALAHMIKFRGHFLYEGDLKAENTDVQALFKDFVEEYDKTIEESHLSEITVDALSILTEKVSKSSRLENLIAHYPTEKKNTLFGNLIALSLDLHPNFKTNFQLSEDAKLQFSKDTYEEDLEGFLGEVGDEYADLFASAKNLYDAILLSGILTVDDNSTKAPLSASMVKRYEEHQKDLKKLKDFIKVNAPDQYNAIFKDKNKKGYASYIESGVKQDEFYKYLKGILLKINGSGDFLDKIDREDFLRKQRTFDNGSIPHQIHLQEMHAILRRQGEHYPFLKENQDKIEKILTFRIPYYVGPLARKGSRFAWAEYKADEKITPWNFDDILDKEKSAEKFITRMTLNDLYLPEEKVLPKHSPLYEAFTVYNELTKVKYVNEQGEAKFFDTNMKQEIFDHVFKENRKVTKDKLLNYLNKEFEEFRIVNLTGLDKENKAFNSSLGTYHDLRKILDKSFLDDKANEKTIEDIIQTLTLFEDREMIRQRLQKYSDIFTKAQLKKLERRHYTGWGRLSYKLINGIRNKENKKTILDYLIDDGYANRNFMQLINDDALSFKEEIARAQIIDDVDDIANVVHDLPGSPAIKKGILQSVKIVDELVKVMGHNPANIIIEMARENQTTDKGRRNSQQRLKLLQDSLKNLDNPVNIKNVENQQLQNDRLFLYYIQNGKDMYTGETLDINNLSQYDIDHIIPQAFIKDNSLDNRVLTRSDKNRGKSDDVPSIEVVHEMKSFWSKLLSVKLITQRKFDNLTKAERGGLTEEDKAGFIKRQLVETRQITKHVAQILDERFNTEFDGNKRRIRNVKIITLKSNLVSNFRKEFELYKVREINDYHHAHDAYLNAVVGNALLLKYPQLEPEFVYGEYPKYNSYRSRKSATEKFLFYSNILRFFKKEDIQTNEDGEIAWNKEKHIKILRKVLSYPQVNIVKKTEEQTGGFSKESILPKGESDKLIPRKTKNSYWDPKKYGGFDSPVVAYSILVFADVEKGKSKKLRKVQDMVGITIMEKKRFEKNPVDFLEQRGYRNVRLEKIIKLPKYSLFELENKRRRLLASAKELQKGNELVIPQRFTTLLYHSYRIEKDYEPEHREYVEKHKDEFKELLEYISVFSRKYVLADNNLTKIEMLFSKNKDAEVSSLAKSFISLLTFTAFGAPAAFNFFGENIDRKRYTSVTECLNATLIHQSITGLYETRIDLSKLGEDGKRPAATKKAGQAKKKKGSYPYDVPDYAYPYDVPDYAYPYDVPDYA

B1: Sco guide 2 sgRNA ; guide 2 site (ssRNA ; dsDNA)
RNA: GAAACAAUGAUAACAAGACCGUUUUAGAGCUGUGCUGUUUAAACAACACAGCAAGUUAAAAUAAGGCUUUGUCCGUACUCAAGCUUGCAAAAGCGUGCACCGAUUCGGUGCU
DNA 1: GAAACAATGATAACAAGACCTGG
DNA 2: CCAGGTCTTGTTATCATTGTTTC
B2: Sco guide 9 sgRNA ; guide 9 site (ssRNA ; dsDNA)
RNA: GUUGAAGAUGAAGCCCAGAGGUUUUAGAGCUGUGCUGUUUAAACAACACAGCAAGUUAAAAUAAGGCUUUGUCCGUACUCAAGCUUGCAAAAGCGUGCACCGAUUCGGUGCU
DNA 1: GTTGAAGATGAAGCCCAGAGCGG
DNA 2: CCGCTCTGGGCTTCATCTTCAAC
B3: Sco guide 11 sgRNA ; guide 11 site (ssRNA ; dsDNA)
RNA: UGCUGCACACAGCAGGCCUUGUUUUAGAGCUGUGCUGUUUAAACAACACAGCAAGUUAAAAUAAGGCUUUGUCCGUACUCAAGCUUGCAAAAGCGUGCACCGAUUCGGUGCU
DNA 1: TGCTGCACACAGCAGGCCTTTGG
DNA 2: CCAAAGGCCTGCTGTGTGCAGCA

Molecular target: T1, ScoCas9 (human codon-optimized)
Assay: cell_activity; PAM NGG; HEK293T
Settings: tags: N-terminal and C-terminal NLS, 3xHA
Method: HEK293T cells were plated in a 96-well plate. Cells were transfected with expression vectors containing Cas9 and guide RNAs (Table 10), 24 hours after plating. Cells were harvested 72 hours post-transfection and total DNA was extracted.

B1 and B2 cannot be ordered by activity: over 30 % indel for the first, over 30 % indel for the second.

Binder B3 has an activity of about 2 % indel.
